Tests used:
[1] = biological target: microtubules grown from purified bovine brain tubulin (bovine) (UniProt Q6B856); test: optical trap rupture force assay; untreated purified kinetochores on anti-penta-His beads (via Dsn1-6His-3M3DK), attached to the growing tips of coverslip-anchored microtubules; force ramp 0.25 pN/s until detachment; BRB80, 1 mM GTP, 23 °C
[2] = biological target: microtubules grown from purified bovine brain tubulin (bovine) (UniProt Q6B856); test: optical trap rupture force assay; kinetochores purified in the presence of benzonase, on anti-penta-His beads (via Dsn1-6His-3M3DK), attached to the growing tips of coverslip-anchored microtubules; force ramp 0.25 pN/s until detachment; BRB80, 1 mM GTP, 23 °C

Chain of UniProt Q6B856 (Q6B856 whole entry, looked up): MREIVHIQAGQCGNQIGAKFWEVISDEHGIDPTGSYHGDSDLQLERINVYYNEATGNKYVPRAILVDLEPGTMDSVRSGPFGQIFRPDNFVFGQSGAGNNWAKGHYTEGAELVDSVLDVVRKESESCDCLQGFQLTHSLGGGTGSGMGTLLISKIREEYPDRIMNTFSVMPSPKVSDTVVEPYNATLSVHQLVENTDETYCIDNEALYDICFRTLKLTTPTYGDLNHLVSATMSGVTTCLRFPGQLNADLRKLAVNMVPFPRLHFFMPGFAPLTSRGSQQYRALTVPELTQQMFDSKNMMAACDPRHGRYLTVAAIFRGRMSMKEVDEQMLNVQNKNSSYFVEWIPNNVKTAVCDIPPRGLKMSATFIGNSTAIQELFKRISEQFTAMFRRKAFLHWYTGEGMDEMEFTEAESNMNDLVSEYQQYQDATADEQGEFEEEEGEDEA

| median rupture force [1] | median rupture force [2] [pN] | Substance |
| --- | --- | --- |
| 7.5 pN | 6.4 | native K. marxianus kinetochore particles purified via Dsn1-6His-3M3DK (from UniProt A0ABX6F0Z3 1-547) (complex) |
| 7.2 | – | native S. cerevisiae kinetochore particles purified via Dsn1-6xHis-3xM3DK (from UniProt P40568 1-576) (complex) |
